Results as given in patent publication US20150344570A1 (published 2015).

T1: human FcγRIIb extracellular domain with C-terminal His tag (human, UniProt P31994 43-217)
T1 construct: extracellular domain; also called FcgRIIb; 2b; not shown: His tag attached to the C terminus
T1 sequence (looked up): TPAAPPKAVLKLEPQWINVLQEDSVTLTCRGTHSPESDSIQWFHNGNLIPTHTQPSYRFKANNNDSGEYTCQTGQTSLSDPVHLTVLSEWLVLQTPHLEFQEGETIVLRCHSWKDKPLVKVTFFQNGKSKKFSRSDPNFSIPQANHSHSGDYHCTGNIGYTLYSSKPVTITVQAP

B1: GpH7-B3 variant L328_03V/GpL16-k0 (Ho Ab) (antibody, human IgG1, kappa)
heavy: not shown
light: DIVMTQSPLSLPVTPGEPASISCQASESLVHSNRNTYLHWYLQKPGQSPQLLIYKVSNRFSGVPDRFSGSGSGTDFTLKISRVEAEDVGVYYCSQNTHVPPTFGQGTKVEIERTVAAPSVFIFPPSDEQLKSGTASVVCLLNNFYPREAKVQWKVDNALQSGNSQESVTEQDSKDSTYSLSSTLTLSKADYEKHKVYACEVTHQGLSSPVTKSFNRGEC
notes: Anti-glypican-3 IgG1; mutation in both H chains; also called L328V homodimerized antibody
B2: GpH7-B3 variant K334_15Y/GpL16-k0 (Ho Ab) (antibody, human IgG1, kappa)
heavy: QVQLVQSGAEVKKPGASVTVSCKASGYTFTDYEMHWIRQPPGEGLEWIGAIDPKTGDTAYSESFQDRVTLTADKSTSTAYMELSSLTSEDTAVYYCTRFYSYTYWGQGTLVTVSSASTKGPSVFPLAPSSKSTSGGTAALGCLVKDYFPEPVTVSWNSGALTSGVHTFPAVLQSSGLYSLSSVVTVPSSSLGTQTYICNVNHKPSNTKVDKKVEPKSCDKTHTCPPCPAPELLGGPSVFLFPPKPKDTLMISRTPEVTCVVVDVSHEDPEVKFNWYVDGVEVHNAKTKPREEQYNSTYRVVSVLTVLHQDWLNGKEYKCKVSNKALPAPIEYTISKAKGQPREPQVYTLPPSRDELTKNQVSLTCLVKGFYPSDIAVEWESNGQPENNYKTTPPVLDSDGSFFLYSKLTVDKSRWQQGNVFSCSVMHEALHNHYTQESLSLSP
light: B1 light
notes: Anti-glypican-3 IgG1; mutation in both H chains; also called K334Y homodimerized antibody
B3: GpH7-B3 variant K334_16H/GpL16-k0 (Ho Ab) (antibody, human IgG1, kappa)
heavy: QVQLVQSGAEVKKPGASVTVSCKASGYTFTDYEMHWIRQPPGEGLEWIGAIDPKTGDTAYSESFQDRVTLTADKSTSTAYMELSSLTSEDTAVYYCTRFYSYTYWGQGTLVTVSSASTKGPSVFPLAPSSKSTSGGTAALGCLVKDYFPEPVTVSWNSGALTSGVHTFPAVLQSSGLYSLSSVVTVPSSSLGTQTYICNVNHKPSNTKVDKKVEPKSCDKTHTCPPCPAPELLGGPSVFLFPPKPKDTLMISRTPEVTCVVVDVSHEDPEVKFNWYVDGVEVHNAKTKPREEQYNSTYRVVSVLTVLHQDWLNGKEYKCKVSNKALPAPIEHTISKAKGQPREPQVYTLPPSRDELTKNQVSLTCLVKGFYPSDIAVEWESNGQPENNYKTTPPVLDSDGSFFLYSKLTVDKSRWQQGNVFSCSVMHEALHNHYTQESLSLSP
light: B1 light
notes: Anti-glypican-3 IgG1; mutation in both H chains; also called K334H homodimerized antibody
B4: GpH7-B3 variant K334_18N/GpL16-k0 (Ho Ab) (antibody, human IgG1, kappa)
heavy: not shown
light: B1 light
notes: Anti-glypican-3 IgG1; mutation in both H chains; also called K334N homodimerized antibody
B5: GpH7-B3 variant K334_19Q/GpL16-k0 (Ho Ab) (antibody, human IgG1, kappa)
heavy: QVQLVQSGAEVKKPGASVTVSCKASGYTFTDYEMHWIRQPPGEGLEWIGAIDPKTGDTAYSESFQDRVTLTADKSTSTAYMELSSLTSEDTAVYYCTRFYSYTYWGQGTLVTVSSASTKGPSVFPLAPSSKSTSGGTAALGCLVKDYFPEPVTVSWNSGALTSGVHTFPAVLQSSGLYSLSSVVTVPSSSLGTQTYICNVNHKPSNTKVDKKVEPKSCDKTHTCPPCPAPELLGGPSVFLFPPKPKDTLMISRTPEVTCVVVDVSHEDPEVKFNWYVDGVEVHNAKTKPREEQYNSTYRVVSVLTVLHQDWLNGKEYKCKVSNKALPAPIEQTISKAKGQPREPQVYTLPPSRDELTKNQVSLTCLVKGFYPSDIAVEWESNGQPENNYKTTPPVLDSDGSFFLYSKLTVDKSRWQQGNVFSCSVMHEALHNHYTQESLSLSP
light: B1 light
notes: Anti-glypican-3 IgG1; mutation in both H chains; also called K334Q homodimerized antibody
B6: GpH7-B3 variant L328_04F/GpL16-k0 (Ho Ab) (antibody, human IgG1, kappa)
heavy: not shown
light: B1 light
notes: Anti-glypican-3 IgG1; mutation in both H chains; also called L328F homodimerized antibody
B7: GpH7-B3 variant L328_06M/GpL16-k0 (Ho Ab) (antibody, human IgG1, kappa)
heavy: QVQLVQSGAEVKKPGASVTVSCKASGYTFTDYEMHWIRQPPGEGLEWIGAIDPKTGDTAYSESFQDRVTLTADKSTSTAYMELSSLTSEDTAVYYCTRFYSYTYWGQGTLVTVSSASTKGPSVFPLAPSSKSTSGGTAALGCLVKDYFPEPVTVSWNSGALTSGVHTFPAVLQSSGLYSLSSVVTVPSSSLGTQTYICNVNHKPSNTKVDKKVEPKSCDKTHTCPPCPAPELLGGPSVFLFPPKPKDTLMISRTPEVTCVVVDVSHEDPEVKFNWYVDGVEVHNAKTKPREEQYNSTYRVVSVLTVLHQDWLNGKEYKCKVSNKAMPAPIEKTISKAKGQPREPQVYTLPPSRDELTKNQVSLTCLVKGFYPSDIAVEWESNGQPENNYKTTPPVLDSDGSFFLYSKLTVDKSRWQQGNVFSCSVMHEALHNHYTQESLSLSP
light: B1 light
notes: Anti-glypican-3 IgG1; mutation in both H chains; also called L328M homodimerized antibody
B8: GpH7-B3 variant L328_07I/GpL16-k0 (Ho Ab) (antibody, human IgG1, kappa)
heavy: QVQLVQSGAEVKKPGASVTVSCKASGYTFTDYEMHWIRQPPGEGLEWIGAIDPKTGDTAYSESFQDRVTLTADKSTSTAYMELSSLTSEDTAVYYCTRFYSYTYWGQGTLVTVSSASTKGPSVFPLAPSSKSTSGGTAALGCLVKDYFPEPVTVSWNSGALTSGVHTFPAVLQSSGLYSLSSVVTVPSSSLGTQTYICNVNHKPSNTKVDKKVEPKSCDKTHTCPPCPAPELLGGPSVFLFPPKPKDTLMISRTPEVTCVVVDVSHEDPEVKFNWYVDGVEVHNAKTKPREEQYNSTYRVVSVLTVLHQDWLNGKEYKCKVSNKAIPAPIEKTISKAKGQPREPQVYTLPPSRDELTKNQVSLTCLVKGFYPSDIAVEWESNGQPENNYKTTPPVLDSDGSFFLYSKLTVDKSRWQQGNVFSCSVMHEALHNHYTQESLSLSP
light: B1 light
notes: Anti-glypican-3 IgG1; mutation in both H chains; also called L328I homodimerized antibody
B9: GpH7-B3 variant L328_14T/GpL16-k0 (Ho Ab) (antibody, human IgG1, kappa)
heavy: not shown
light: B1 light
notes: Anti-glypican-3 IgG1; mutation in both H chains; also called L328T homodimerized antibody
B10: GpH7-B3 variant L328_15Y/GpL16-k0 (Ho Ab) (antibody, human IgG1, kappa)
heavy: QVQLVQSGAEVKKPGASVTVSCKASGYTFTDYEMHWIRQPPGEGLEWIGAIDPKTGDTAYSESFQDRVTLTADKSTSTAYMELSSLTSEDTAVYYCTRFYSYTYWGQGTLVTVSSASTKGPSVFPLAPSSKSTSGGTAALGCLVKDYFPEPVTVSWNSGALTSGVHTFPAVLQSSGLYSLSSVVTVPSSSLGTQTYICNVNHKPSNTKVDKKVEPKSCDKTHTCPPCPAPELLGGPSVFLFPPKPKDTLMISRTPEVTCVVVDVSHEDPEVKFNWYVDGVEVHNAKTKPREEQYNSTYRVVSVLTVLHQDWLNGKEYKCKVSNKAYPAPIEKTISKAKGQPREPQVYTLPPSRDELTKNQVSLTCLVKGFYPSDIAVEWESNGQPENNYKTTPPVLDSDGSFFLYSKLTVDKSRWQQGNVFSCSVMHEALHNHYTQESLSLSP
light: B1 light
notes: Anti-glypican-3 IgG1; mutation in both H chains; also called L328Y homodimerized antibody
B11: GpH7-B3 variant L328_19Q/GpL16-k0 (Ho Ab) (antibody, human IgG1, kappa)
heavy: not shown
light: B1 light
notes: Anti-glypican-3 IgG1; mutation in both H chains; also called L328Q homodimerized antibody
B12: GpH7-B3 variant P238_08L/GpL16-k0 (Ho Ab) (antibody, human IgG1, kappa)
heavy: not shown
light: B1 light
notes: Anti-glypican-3 IgG1; mutation in both H chains; also called P238L homodimerized antibody
B13: GpH7-B3 variant P271_01G/GpL16-k0 (Ho Ab) (antibody, human IgG1, kappa)
heavy: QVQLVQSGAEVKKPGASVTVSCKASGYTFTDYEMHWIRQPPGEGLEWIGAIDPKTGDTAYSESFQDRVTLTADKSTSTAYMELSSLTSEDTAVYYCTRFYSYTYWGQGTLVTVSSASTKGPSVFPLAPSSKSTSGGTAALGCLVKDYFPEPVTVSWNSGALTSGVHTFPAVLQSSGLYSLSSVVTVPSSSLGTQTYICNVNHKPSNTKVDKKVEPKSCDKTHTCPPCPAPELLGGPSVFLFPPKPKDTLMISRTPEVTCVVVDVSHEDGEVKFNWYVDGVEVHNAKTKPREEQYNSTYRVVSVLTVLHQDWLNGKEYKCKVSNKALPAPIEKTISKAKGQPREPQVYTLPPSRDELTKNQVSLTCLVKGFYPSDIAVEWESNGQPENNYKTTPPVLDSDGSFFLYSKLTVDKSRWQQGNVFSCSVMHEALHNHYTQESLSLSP
light: B1 light
notes: Anti-glypican-3 IgG1; mutation in both H chains; also called P271G homodimerized antibody
B14: GpH7-B3 variant P271_08L/GpL16-k0 (Ho Ab) (antibody, human IgG1, kappa)
heavy: not shown
light: B1 light
notes: Anti-glypican-3 IgG1; mutation in both H chains; also called P271L homodimerized antibody
B15: GpH7-B3 variant P331_04F/GpL16-k0 (Ho Ab) (antibody, human IgG1, kappa)
heavy: not shown
light: B1 light
notes: Anti-glypican-3 IgG1; mutation in both H chains; also called P331F homodimerized antibody
B16: GpH7-B3 variant S239_01G/GpL16-k0 (Ho Ab) (antibody, human IgG1, kappa)
heavy: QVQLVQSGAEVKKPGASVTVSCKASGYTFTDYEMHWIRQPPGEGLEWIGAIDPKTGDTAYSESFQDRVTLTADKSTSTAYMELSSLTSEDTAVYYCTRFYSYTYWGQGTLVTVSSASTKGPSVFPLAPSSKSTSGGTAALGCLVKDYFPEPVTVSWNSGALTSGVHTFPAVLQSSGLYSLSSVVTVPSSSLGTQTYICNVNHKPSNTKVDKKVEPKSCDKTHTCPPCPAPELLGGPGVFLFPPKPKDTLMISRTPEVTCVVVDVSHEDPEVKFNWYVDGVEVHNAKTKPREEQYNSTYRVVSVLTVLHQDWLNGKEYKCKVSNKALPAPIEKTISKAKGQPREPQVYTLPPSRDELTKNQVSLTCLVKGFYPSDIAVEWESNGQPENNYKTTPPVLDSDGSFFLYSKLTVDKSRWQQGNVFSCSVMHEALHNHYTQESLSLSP
light: B1 light
notes: Anti-glypican-3 IgG1; mutation in both H chains; also called S239G homodimerized antibody
B17: GpH7-B3 variant S239_07I/GpL16-k0 (Ho Ab) (antibody, human IgG1, kappa)
heavy: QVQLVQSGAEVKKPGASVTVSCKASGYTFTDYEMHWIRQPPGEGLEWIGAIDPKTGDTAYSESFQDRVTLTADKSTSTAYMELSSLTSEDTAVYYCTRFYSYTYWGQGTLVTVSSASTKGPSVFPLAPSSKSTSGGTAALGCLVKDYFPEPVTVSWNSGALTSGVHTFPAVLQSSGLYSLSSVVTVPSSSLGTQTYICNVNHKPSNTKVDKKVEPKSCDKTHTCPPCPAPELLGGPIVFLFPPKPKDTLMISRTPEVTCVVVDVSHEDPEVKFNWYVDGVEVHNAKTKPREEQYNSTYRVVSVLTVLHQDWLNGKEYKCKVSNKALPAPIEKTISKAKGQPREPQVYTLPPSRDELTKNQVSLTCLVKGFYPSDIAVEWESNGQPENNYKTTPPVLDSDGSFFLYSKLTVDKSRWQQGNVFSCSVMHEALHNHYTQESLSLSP
light: B1 light
notes: Anti-glypican-3 IgG1; mutation in both H chains; also called S239I homodimerized antibody
B18: GpH7-B3 variant S239_08L/GpL16-k0 (Ho Ab) (antibody, human IgG1, kappa)
heavy: not shown
light: B1 light
notes: Anti-glypican-3 IgG1; mutation in both H chains; also called S239L homodimerized antibody
B19: GpH7-B3 variant S239_09D/GpL16-k0 (Ho Ab) (antibody, human IgG1, kappa)
heavy: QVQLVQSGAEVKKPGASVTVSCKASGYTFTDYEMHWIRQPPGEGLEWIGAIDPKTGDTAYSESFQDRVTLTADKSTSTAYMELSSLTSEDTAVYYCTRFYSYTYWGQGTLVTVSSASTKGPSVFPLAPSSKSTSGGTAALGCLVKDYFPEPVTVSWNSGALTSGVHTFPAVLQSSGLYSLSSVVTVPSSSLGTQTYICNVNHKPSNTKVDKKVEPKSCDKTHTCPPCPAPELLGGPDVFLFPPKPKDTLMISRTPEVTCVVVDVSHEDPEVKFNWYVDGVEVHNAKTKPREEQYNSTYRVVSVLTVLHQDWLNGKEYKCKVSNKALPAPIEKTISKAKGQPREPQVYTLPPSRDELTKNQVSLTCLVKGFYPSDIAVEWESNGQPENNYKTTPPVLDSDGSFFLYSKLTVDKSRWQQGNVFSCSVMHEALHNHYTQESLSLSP
light: B1 light
notes: Anti-glypican-3 IgG1; mutation in both H chains; also called S239D homodimerized antibody
B20: GpH7-B3 variant S239_18N/GpL16-k0 (Ho Ab) (antibody, human IgG1, kappa)
heavy: not shown
light: B1 light
notes: Anti-glypican-3 IgG1; mutation in both H chains; also called S239N homodimerized antibody
B21: GpH7-B3 variant S267_02A/GpL16-k0 (Ho Ab) (antibody, human IgG1, kappa)
heavy: not shown
light: B1 light
notes: Anti-glypican-3 IgG1; mutation in both H chains; also called S267A homodimerized antibody
B22: GpH7-B3 variant S267_03V/GpL16-k0 (Ho Ab) (antibody, human IgG1, kappa)
heavy: not shown
light: B1 light
notes: Anti-glypican-3 IgG1; mutation in both H chains; also called S267V homodimerized antibody
B23: GpH7-B3 variant S267_07I/GpL16-k0 (Ho Ab) (antibody, human IgG1, kappa)
heavy: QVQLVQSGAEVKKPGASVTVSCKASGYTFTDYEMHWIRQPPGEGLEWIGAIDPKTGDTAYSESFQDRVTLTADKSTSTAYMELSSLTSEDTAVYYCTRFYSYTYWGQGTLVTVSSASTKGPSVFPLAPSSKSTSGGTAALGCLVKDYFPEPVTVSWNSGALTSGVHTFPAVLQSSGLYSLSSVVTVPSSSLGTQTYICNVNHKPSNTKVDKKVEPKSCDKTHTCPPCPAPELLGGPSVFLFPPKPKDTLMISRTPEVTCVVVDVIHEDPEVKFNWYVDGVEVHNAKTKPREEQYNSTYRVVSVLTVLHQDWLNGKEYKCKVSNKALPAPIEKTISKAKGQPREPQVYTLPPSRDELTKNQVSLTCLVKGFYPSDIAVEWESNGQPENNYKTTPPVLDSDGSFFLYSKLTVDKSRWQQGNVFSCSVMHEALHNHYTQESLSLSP
light: B1 light
notes: Anti-glypican-3 IgG1; mutation in both H chains; also called S267I homodimerized antibody

These binders were tested against T1, human FcγRIIb extracellular domain with … (assay: SPR (Biacore T100), antibody captured on antigen peptide chip, FcγRIIb as analyte; relative binding).
Protocol: Analysis of interaction between objective antibody and the FcγR was carried out using Biacore T100 (GE Healthcare). HBS-EP+ (GE Healthcare) was used as the running buffer, and the measurement temperature was set to 25° C. Chips produced by immobilizing the antigen peptide by the amine coupling method to a Series S Sencor Chip CM5 (GE Healthcare), or alternatively, chips produced by allowing preliminarily biotinylated antigen peptides to interact with and immobilize onto a Series S Sensor Chip SA (certified) (GE Healthcare) were used. Antibodies of interest were captured onto an antigen peptide-immobilized chip, and allowed to interact to each FcγR diluted with running buffer. To regenerate and repeatedly use the chip, the antibodies captured on the chip were washed off by reacting 10 mM glycine-HCl, pH 1.5.
For B1, the Ho/Con_2b was 135 % of control GpH7-B3/GpL16-k0 (=100). With B2 the Ho/Con_2b was 126 % of control GpH7-B3/GpL16-k0 (=100). B3 was tested, and the Ho/Con_2b was 124 % of control GpH7-B3/GpL16-k0 (=100). With B4 the Ho/Con_2b was 128 % of control GpH7-B3/GpL16-k0 (=100). B5 was tested, and the Ho/Con_2b was 117 % of control GpH7-B3/GpL16-k0 (=100). With B6 the Ho/Con_2b was 241 % of control GpH7-B3/GpL16-k0 (=100). With B7 the Ho/Con_2b was 171 % of control GpH7-B3/GpL16-k0 (=100). In the case of B8, the Ho/Con_2b is reported as 188 % of control GpH7-B3/GpL16-k0 (=100). With B9 the Ho/Con_2b was 146 % of control GpH7-B3/GpL16-k0 (=100). For B10, the Ho/Con_2b was 272 % of control GpH7-B3/GpL16-k0 (=100). With B11 the Ho/Con_2b was 111 % of control GpH7-B3/GpL16-k0 (=100). With B12 the Ho/Con_2b was 235 % of control GpH7-B3/GpL16-k0 (=100). For B13, the Ho/Con_2b was 229 % of control GpH7-B3/GpL16-k0 (=100). With B14 the Ho/Con_2b was 113 % of control GpH7-B3/GpL16-k0 (=100). In the case of B15, the Ho/Con_2b is reported as 113 % of control GpH7-B3/GpL16-k0 (=100). B16 was tested, and the Ho/Con_2b was 174 % of control GpH7-B3/GpL16-k0 (=100). In the case of B17, the Ho/Con_2b is reported as 108 % of control GpH7-B3/GpL16-k0 (=100). B18 was tested, and the Ho/Con_2b was 142 % of control GpH7-B3/GpL16-k0 (=100). For B19, the Ho/Con_2b was 224 % of control GpH7-B3/GpL16-k0 (=100). B20 was tested, and the Ho/Con_2b was 125 % of control GpH7-B3/GpL16-k0 (=100). For B21, the Ho/Con_2b was 274 % of control GpH7-B3/GpL16-k0 (=100). B22 was tested, and the Ho/Con_2b was 206 % of control GpH7-B3/GpL16-k0 (=100). In the case of B23, the Ho/Con_2b is reported as 213 % of control GpH7-B3/GpL16-k0 (=100).
